Measurements: patent publication US20240383994A1

Experiments:
[1] = biological target: human CD40 (hCD40), full length, on cells (human) (UniProt P25942)
[2] = biological target: cynoCD40-mFc (monkey (cyno)); assay: flow cytometry, blocking of cynoCD40-mFc (2 µg/mL) binding to CHO-K1-cynoCD40L cells
cynoCD40-mFc (monkey (cyno)), sequence (chain, as listed by the source limits assumed, form in doubt): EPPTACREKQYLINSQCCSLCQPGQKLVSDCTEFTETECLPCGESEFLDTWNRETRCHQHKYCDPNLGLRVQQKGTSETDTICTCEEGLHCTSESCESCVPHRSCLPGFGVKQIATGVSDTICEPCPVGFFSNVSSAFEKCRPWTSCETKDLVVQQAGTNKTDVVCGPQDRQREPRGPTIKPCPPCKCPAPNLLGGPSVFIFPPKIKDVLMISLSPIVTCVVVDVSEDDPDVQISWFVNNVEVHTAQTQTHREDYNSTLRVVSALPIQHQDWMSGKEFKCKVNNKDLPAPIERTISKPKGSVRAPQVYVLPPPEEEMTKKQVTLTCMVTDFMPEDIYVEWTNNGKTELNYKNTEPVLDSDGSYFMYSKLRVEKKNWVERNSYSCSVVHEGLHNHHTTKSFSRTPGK

human CD40 (hCD40), full length, on cells (human), sequence (P25942 21-277 limits assumed): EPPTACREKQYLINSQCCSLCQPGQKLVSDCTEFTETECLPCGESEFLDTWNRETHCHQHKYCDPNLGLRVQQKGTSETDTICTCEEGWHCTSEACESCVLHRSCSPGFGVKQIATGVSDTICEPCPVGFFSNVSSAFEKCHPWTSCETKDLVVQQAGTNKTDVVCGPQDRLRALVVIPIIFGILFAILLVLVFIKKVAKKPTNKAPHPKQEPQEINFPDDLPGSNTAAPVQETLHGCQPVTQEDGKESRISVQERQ

Binder	IC50; NF-κB luciferase reporter (RLU), 293T-hCD40-NFκB cells stimulated with human CD40L protein 10 µg/mL [1] [ng/mL]	IC50 [2] [nM]
A01 (antibody, V domains shown) VH: QVQLKESGPGLVAPSQSLSITCTVSGFSLPTSGVHWVRQPPGKGLEWLGVIWAGGDTNYNSALMSRLSISKDNSKSQVFLKMNSLQKDDTAIYYCLGHGHFDVWGAGTTVTVSS VL: DVVMTQTPLSLPVSLGDQASISCRSSQSLVHSSGNTYLQWYLQKPGQSPGLLIYKVSNRFSGVPDRFSGSGSGTDFTLKISRVEAEDLGVYFCSQTTHVPWTFGGGTKLEIK	2.22	–
A02 (antibody, V domains shown) VH: QVQLKESGPGLVAPSQSLSITCTVSGFSLTSSGVHWVRQPPGKGLEWLGVIWAGGDTSYNSALMSRLSISKDNSKSQVFLKMNSLQTDDTAMYYCLGHGHLDVWGAGTTVTVSS VL: DVVMTQTPLSLPVSLGDQASISCRSSQSLVHSSGNTYLHWYLQKPGQSPGLLIYKVSNRFSGVPDRFSGSGSGTDFTLKISRVEAEDLGVYFCSQTTHVPWTFGGGTKLEIK	2.79	–
B01 (antibody, V domains shown) VH: QIQLVQSGPELKKPGETVKISCKASGYTFTNYGMNWVKQAPGKGLKWMGWINPYTGEPTYADDFKGRFAFSVETSASTAYLQINNLKNEDTATYFCARKPPFDYWGQGTTLTVSS VL: DIVMTQAAPSVPVTPGESVSISCRSSKSLLHSNGNTYLYWFLQRPGQSPQILIYRVSNLASGVPDRFSGSGSGTAFTLRISRVEAEDVGVYYCMQHVEYPFTFGSGTKLEIK	8.16	–
B02 (antibody, V domains shown) VH: EVQLQQSGPELVKPGASVKMSCKASGYTFTSYVMYWVKQKPGQGLEWIGYVNPYNDGTNYNEKFKGKATLTSDKSSSTAYMELSSLTSEDSAVYYCARGAMDYWGQGTSVTVSS VL: DIVMTQAAPSVPVTPGESVSISCRSSKSLLHSQGNTYLYWFLQRPGQSPQILIYRVSNLASGVPDRFSGSGSGTAFTLRISRVEAEDVGVYYCMQHVEYPFTFGSGTKLEIK	5.21	–

Further lines, results first:

IC50; NF-κB luciferase reporter (RLU), 293T-hCD40-NFκB cells stimulated with human CD40L protein 10 µg/mL [1] [ng/mL]	IC50 [2] [nM]	Binder
287	–	A03 (antibody, V domains shown) VH: DVQLQESGPDRVKPSQSLSLTCTVTGYSITSDYSWHWIRQFPGNKLEWMGYIYSSGHTYYNPSLKSRISFTRDTSKNQFFLQLNSVTTEDTATYYCAIYYYGRSYFDNWGRGTTLTVSS VL: QIVLTQSPAIMSASPGEKVTLTCSASSSVNYMHWYQQKSGTSPKRWIYDTSKLASGVPARFSGSGSGTSYSLTISSMEAEDAATYYCQQWSSNPLTFGAGTKLELK
16.2	–	B03 (antibody, V domains shown) VH: EVKLVESGGGLVQPGGSLRLSCATSGFTFSDFYMEWVRQPPGKRLEWIAASRDKANDYTTEYSPSVQGRFIVSRDSSQSILYLQMNALRTEDTAIYYCARDVGRSYALDYWGQGTSVTVSS VL: QVVLTQSPAIMSASPGEKVTMTCSASSSVTYMHWYQQKSGTSPKRWIYVTSKLASGVPTRFSGSGSGTSYSLTISSMEAEDAATYYCQQWSRKPPTFGAGTKLELK
–	25.2	Chi-A01 (antibody, human IgG4 S228P, kappa, V domains shown) VH: QVQLKESGPGLVAPSQSLSITCTVSGFSLPTSGVHWVRQPPGKGLEWLGVIWAGGDTNYNSALMSRLSISKDNSKSQVFLKMNSLQKDDTAIYYCLGHGHFDVWGAGTTVTVSS VL: DVVMTQTPLSLPVSLGDQASISCRSSQSLVHSSGNTYLQWYLQKPGQSPGLLIYKVSNRFSGVPDRFSGSGSGTDFTLKISRVEAEDLGVYFCSQTTHVPWTFGGGTKLEIKR
–	25.5	hzA01-3.1 (antibody, human IgG4 S228P, kappa, V domains shown) VH: QVQLQESGPGLVKPSETLSLTCTVSGFSLPTSGVHWIRQPPGKGLEWIGVIWAGGDTNYNPSLKSRVTISKDNSKNQVFLKLSSVTAADTAVYYCLGHGHFDVWGQGTLVTVSS VL: DVVMTQSPLSLPVTLGQPASISCRSSQSLVHSSGNTYLQWYLQRPGQSPGLLIYKVSNRFSGVPDRFSGSGSGTDFTLKISRVEAEDVGVYYCSQTTHVPWTFGQGTKLEIKR
–	22.9	hzA01-3.4 (antibody, human IgG4 S228P, kappa, V domains shown) VH: QVQLKESGPGLVKPSETLSLTCTVSGFSLPTSGVHWIRQPPGKGLEWIGVIWAGGDTNYNSALMSRVTISKDNSKSQVFLKMSSVTAADTAVYYCLGHGHFDVWGQGTLVTVSS VL: DVVMTQSPLSLPVTLGQPASISCRSSQSLVHSSGNTYLQWYLQRPGQSPGLLIYKVSNRFSGVPDRFSGSGSGTDFTLKISRVEAEDVGVYYCSQTTHVPWTFGQGTKLEIKR
–	35.8	hzA01-3.3 (antibody, human IgG4 S228P, kappa, V domains shown) VH: QVQLKESGPGLVKPSETLSLTCTVSGFSLPTSGVHWIRQPPGKGLEWIGVIWAGGDTNYNSALKSRVTISKDNSKSQVFLKLSSVTAADTAVYYCLGHGHFDVWGQGTLVTVSS VL: DVVMTQSPLSLPVTLGQPASISCRSSQSLVHSSGNTYLQWYLQRPGQSPGLLIYKVSNRFSGVPDRFSGSGSGTDFTLKISRVEAEDVGVYYCSQTTHVPWTFGQGTKLEIKR
